Assay results as given in patent US8822171.

Tested on: recombinant human tau, largest isoform (2N4R)

| Substance | New sites identified in recombinant tau (phosphorylated residues, numbered on 441-residue human tau) | in vitro phosphorylation of recombinant tau, sites identified by LC/MS/MS |
| --- | --- | --- |
| glycogen synthase kinase 3β (GSK-3β) | 149, 220, 237, 241, 245, 258, 285, 289, 305, 352, 373, (409/412/413/414/416, 2 sites of which 1 or 2 are new) | GSK-3 found 12 new sites making a total of 38 in all. |
| casein kinase 2 (CK2) | (52/56), 199, 386, 400, (412/413/414/416, 1 site) | CK2 found 5 new sites making a total of 8 in all. |
| cyclic AMP-dependent protein kinase (PKA) | 210, (217/220), 258, 352, (412/413) | PKA found 5 new sites making a total of 24 in all. |
